# Measurements as given in patent US20130143812A1, “ANTI-INFLAMMATORY DRUG” (SEKISUI MEDICAL CO., LTD., priority 2010, published 2013).
# Key:
# RAW264.7 cells [1] = test: Arginase-1 expression in RAW264.7 cells with activin A, Fstl3, anti-Fstl3 antibody or mouse IgG and palmitic acid; assay type: cell-based; details: activin A 10 ng/mL, under induction of inflammation by palmitic acid 200 μM
# Experimental: Fstl3 (30 ng/mL), an anti-Fstl3 antibody or mouse IgG (0.3 to 10 μg/mL), and activin A (10 ng/mL) were added to RAW264.7 cells in combination as depicted in FIG. 6. Human Recombinant (R&D Systems, 338AC005), Recombinant (R&D Systems, 659AB005), and Follistatin-like 3 Recombinant (R&D Systems, 1255F3025) were used for activin A, activin B, and Fstl3, respectively. After 30 minutes, palmitic acid (a proinflammatory substance) was added to the final concentration of 200 μM and, after eight hours, RNeasy Mini Kit (250) (Qiagen, Cat. Number 74106) was used for recovering the cells to extract RNA.
# The RNA extracted at step (1) was used for performing a reverse transcription reaction in accordance with the protocol of High Capacity cDNA Reverse Transcription Kit with RNase Inhibitor (ABI) to perform TaqMan PCR. Arginase-1 was selected as an M2 macrophage marker to create TaqMan probes.
# db/db mice = test: Arginase-1 mRNA expression in visceral fat of db/db mice given recombinant adenovirus; assay type: in vivo; details: activin expressed by recombinant adenovirus via tail vein once a week for two weeks, compared to control
# Source text: (§1) Full-length mouse inhibin βA cDNA or full-length mouse inhibin βB cDNA was amplified by using pcDNA3.1/V5-HisA (Invitrogen) in accordance with the recommended method. The amplified product was subjected to HindIII and EcoRV treatments and used for production of recombinant adenovirus. The recombinant adenovirus of inhibin βA or inhibin βB was produced by using Takara Adenovirus Expression Vector Kit (Takara) in accordance with the recommended method. For negative control, β-galactosidase-gene-containing virus attached to the kit was used. The adenovirus was transfected to HEK293 cells by using CellPhect (registered trademark) Transfection Kit (GE Healthcare) with the calcium phosphate method.
# After seven-week-old male db/db mice were adapted for one week, 5.0×10^11 pfu/mL of the recombinant adenovirus was lysed in 150 μL of PBS and administered from the tail vein once a week for two weeks. Visceral fat was collected on seventh day after the second administration for performing a reverse transcription reaction in accordance with the protocol of High Capacity cDNA Reverse Transcription Kit with RNase Inhibitor (ABI) and the expression analysis of arginase-1 was performed with TaqMan PCR.
# [2] = tested on: high-fat diet-fed B6 mice; test: Glucose tolerance test (GTT) in high-fat diet-fed B6 mice given recombinant adenovirus; assay type: in vivo; details: activin expressed by recombinant adenovirus, glucose 1.0 mg/g-BW into abdominal cavity
# Experimental: Adenovirus was produced in the same way as the production of recombinant adenovirus in Example 3.
# After five-week-old male B6 mice were adapted with normal diet for one week, high-fat diet was fed for twelve weeks. The recombinant adenovirus (5.0×10^11 pfu/mL) was lysed in 150 μL of PBS and administered to mice in the 18th week from the tail vein once a week for two weeks. A glucose tolerance test (GTT) was performed on seventh day after the second administration.
# The GTT was performed as follows. Into the abdominal cavities of mice fasted for 16 hours from the previous day of the test, 1.0 mg/g-BW of glucose (diluted by physiological saline) was administered. Serum was separated from collected whole blood and glucose concentration was measured by Glucose-Test Wako (manufactured by Wako Pure Chemical Industries).
# [3] = tested on: high-fat diet-fed B6 mice; test: Arginase-1 mRNA expression in visceral fat of high-fat diet-fed B6 mice given recombinant adenovirus; assay type: in vivo; details: twelve-week high-fat diet B6 mice, activin expressed by recombinant adenovirus via tail vein once a week for two weeks
# Source text: as §1
# After five-week-old male B6 mice were adapted with normal diet for one week, high-fat diet was fed for twelve weeks. The recombinant adenovirus (5.0×10^11 pfu/mL) was lysed in 150 μL of PBS and administered to mice in the 18th week from the tail vein once a week for two weeks. Visceral fat was collected on seventh day after the second administration for performing reverse transcription in accordance with the protocol of High Capacity cDNA Reverse Transcription Kit with RNase Inhibitor (ABI) and the expression analysis of arginase-1 was performed with TaqMan PCR.
# RAW264.7 cells [4] = test: Expression of M2 macrophage markers in RAW264.7 cells cultured with activin A and SB431542; assay type: cell-based; details: activin A 10 or 30 ng/mL, 24 hours
# Experimental: Activin A (10 ng/mL or 30 ng/mL) and SB431542 (0.1 to 1 μM, Santa Cruz Biotechnology, Inc., sc-204265) were added to RAW264.7 cells in combination as depicted in FIG. 2. Human Recombinant (R&D Systems, 338AC005) was used for activin A. After 24 hours, RNeasy Mini Kit (250) (Qiagen, Cat. Number 74106) was used for recovering the cells to extract RNA. The RNA extracted at step (1) was used for performing a reverse transcription reaction in accordance with the protocol of High Capacity cDNA Reverse Transcription Kit with RNase Inhibitor (ABI) to perform TaqMan PCR. Arginase-1, Mrc2 (mannose receptor 2), and IL-10 were selected as M2 macrophage markers to create respective TaqMan probes.
# RAW264.7 cells [5] = test: Expression of M2 and M1 macrophage markers in RAW264.7 cells cultured with activin A or activin B (TaqMan PCR); assay type: cell-based; details: 10 or 30 ng/mL added individually, 8 hours
# Experimental: Each of activin A (10 ng/mL or 30 ng/mL) and activin B (10 ng/mL or 30 ng/mL) was individually added to RAW264.7 cells. Human Recombinant (R&D Systems, 338AC005) and Recombinant (R&D Systems, 659AB005) were used for activin A and activin B, respectively. After eight hours, RNeasy Mini Kit (250) (Qiagen, Cat. Number 74106) was used for recovering the cells to extract RNA.
# The RNA extracted at step (1) was used for performing a reverse transcription reaction in accordance with the protocol of High Capacity cDNA Reverse Transcription Kit with RNase Inhibitor (ABI) to perform TagMan PCR. Arginase-1 was selected as an M2 macrophage marker and IL-6 and MCP-1 were selected as M1 macrophage markers to create respective TaqMan probes. Each of mRNA expression levels is represented by a multiple when an expression level of cyclophilin A mRNA in the same sample is defined as one (hereinafter, the same applies to the examples using TaqMan PCR unless otherwise stated).
# RAW264.7 cells [6] = test: Macrophage marker expression in RAW264.7 cells with activin A, activin B or SB431542 and palmitic acid; assay type: cell-based; details: 8 hours
# Experimental: (1) Induction of Macrophages by Activin Species Activin A (10 ng/mL), activin B (10 ng/mL), and SB431542 (0.1 to 1 μM) were added to RAW264.7 cells in combination as depicted in FIG. 4. Human Recombinant (R&D Systems, 338AC005) and Recombinant (R&D Systems, 659AB005) were used for activin A and activin B, respectively. After 30 minutes, palmitic acid (a proinflammatory substance) was added to the final concentration of 200 μM and, after eight hours, RNeasy Mini Kit (250) (Qiagen, Cat. Number 74106) was used for recovering the cells to extract RNA. The RNA extracted at step (1) was used for performing a reverse transcription reaction in accordance with the protocol of High Capacity cDNA Reverse Transcription Kit with RNase Inhibitor (ABI) to perform TaqMan PCR. Arginase-1 was selected as an M2 macrophage marker and IL-6 and MCP-1 were selected as M1 macrophage markers to create respective TaqMan probes. Analysis was performed in the same way as the expression analysis of macrophage markers of Example 1.
# [7] = activin 10 ng/mL, palmitic acid 200 μM
molecule,measurement,setting,value
"activin A: Human Recombinant (R&D Systems, 338AC005); in Examples 3 and 7 expressed by inhibin βA recombinant adenovirus (protein, UniProt P08476 311-426, looked up, Inhibin beta A chain homodimer) Inhibin beta A chain: GLECDGKVNICCKKQFFVSFKDIGWNDWIIAPSGYHANYCEGECPSHIAGTSGSSLSFHSTVINHYRMRGHSPFANLKSCCVPTKLRPMSMLYYDDGQNIIKKDIQNMIVEECGCS",expression level of arginase-1,RAW264.7 cells [1],increased
same,expression of arginase-1 in visceral fat,db/db mice,no difference from the control
same,glucose metabolism in glucose tolerance test (GTT),[2],improved glucose metabolism
same,expression level of arginase-1 in visceral fat,[3],slightly increased
same,expression of IL-10,RAW264.7 cells [4],remarkably increased
same,expression of Mrc2,RAW264.7 cells [4],remarkably increased
same,expression of arginase-1,RAW264.7 cells [4],remarkably increased
same,expression level of IL-6 (M1 macrophage marker),RAW264.7 cells [5],not changed
same,expression level of MCP-1 (M1 macrophage marker),RAW264.7 cells [5],not changed
same,expression of arginase-1 (M2 macrophage marker),RAW264.7 cells [5]; mRNA relative to cyclophilin A,remarkably increased
same,expression level of arginase-1,"RAW264.7 cells [6]; activin 10 ng/mL present, palmitic acid 200 μM added, compared to control",remarkably increased
same,"expression level of MCP-1, effect of activin addition",RAW264.7 cells [6]; [7],not changed
same,"expression of IL-6, effect of activin addition",RAW264.7 cells [6]; [7],slightly reduced
